From the nanobody polyreactivity screen of Harvey et al. (2022)

Assay: yeast display, Sf9 membrane polyspecificity reagent, FACS + sequencing; frameworks hold sequencing errors
Outline: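 Nanobodies from a synthetic yeast display library (Saccharomyces cerevisiae BJ5465), induced 36–48 hours with galactose, were stained 1 hour at 4 °C with 10% biotinylated, detergent-solubilized Sf9 membrane reagent, enriched on streptavidin microbeads, then FACS-sorted. Anti-HA (expression) and streptavidin (reagent binding) fluorescence set low and high (top ~1%) gates. Polyreactivity labels come from the gate of origin. Genes were colony-PCR amplified, MiSeq 2 × 250 sequenced and filtered by CDR length.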

Sequence | polyreactivity (PSR sort gate)
QVQLEESGGGLVQAGGSLRLSCAASGRNLEVYAMGWNRKAPGKERELVAAIRWSDGNTYYADSVKGRFTISRDIAKNTVYLQMNSLKPEDTAVYYCAARTPGGYDWGQGTQVTVSS | high polyreactivity
QVQLVESGGGLVQAGGSLRLSCAASGYIFRFNAMGWYRQAPGKERELVAVITKSGGSTYYADSVKGRFTISRDNAKNTVYLQMNSLKPEDTAVYDCNADRFYIDYTNTYDSIRDYWGQGTQVTVSS | low polyreactivity
QVQLVESAVGLVQAGGSLRLSCAASGTTFVRYAMGWYRQAPGKEREFVAASSKSGGSTYYADSVKGRFTISRDNAKNPVYLQMNSLKPEDTAVYYCATRTTYGQSGSAGPRPSNYWGQGTQVTVSS | low polyreactivity
QVQLVESGGGLVQAGGSLRLSCAASGSIFVVNAMGWYRQAPGKERELVAAISDSGDRTYYADSVKGRFTISRDNAKNTVYLQMNSLKPEDTAVYYCAADSIQTTAIYDYWGQGTQVTVSS | low polyreactivity
QVQLVESGGGLVQAGGSLRLSCAASGRIFWRNTMGWYRQAPGKERELVAAITRTGGSTYYADSVKGRFTISRDNAKNTVYLQMNSLKPEDTAVYYCAAQQHYGDGYWGQGTQVTVSS | high polyreactivity
QVQLVESGGGLVHAGGSLRLSCAASGGIFAGNVMGWDRQAPGKERYLVAAIDGDGRTYYADSVKGRFTISRDNAKNTVYLQMYSQKPEDTAVYYCAADAGVRGQYDDIDEGNYWGLGTQVTVSS | low polyreactivity
QVQLVESGGGLVQAGGPLRLSCAASGFTFGYYTMGWYRQAPGKERELVAAISWRGGRTYYADSVKGRFTISRDNAKNTVYLQMNSLKPEETAVYYCAAEYTYGWTYRPFVYWGQGTQVTVSS | high polyreactivity
QVQLVESGGGLVQAGGSLRLSCAASGFIFGRKSMGWYRQAPGKERELVAAISSGDSTYYADSVKGRFTISRDNAKNTVYLQMNSLKPEDTAVYYCAARLVRQQSRPKGGYWGQGTQVTVSS | high polyreactivity
QVQLGESGGGLVQAGGSLRLSCAGTGIIFARYVMGWEREAPGQDRELVAAIRRSGHSTYADSVKGRFTISRYNATNTLYLHMNSLKPEETAVYYCNAKGWISGRYSPYYRFDYWGQGTQVTVSS | high polyreactivity
QVQLVESGGGLVQEGGSLSLSCAASGSTFTVYNMGWYRKAPGEERELVAANSRRGDSTYYADSVKGRFTISRDNAKNTVYSQMHSLKPEETAVYYSNARSAYGTGNQRGRRYYWGQGTEVTVSS | high polyreactivity
QVQLVESGGGLVQAGGSLRLSCAASGSIFHTYAMGWYIQAPGKERELVAAITVSGGDTYYADSVKGRFTISRDNEKNNVYLQMNSLKPEDTAVYYCAVDTTTSYTVAYDYWGQGTQVSVSS | low polyreactivity
QVQLVESGGGLVQAGGSLRLSCAASGRTFLGNAMGWYRQAPGKERELVAAIRYSGGRTYYADSVKGRFTISRDNANNTVYLQMNSLKPEDTAVYYCAAELDGSNYPLDYWGQGTKVTVSS | low polyreactivity
QVQLVESGGGLLQAGGSLRLSCAASGSTFQWYAMGWYRQAPGKERELVAGITRTGSTYYADSVKGRFTISRDNAKNTVYLQMNSLKPEDTAVYYCAAKWHTASGKYYYWGQGTQVTVSS | high polyreactivity
QVQLVESGGGLVQAGGSLRLSCAASGNTFLYYAMGWYRQAPGKEMELVASINLSDGCTYYADSVKGRFTISRDNAKNTVYFQMTSLKPEDTAVYYCAAVFGGYTIYDYWGQGTQVTVSS | low polyreactivity
QVQLVESGGGLVQAGGSLRLICAASGRTFRSYAMGWYRQAPGKERELVAAISWSGGSTYYADSVKGRFTISRDNAKNTVYLQMNSLKPVDTAVYYCAAEVYYTYVYILDYWGQGTQVTVSS | high polyreactivity
QVQLVESGGGLVQAGGSLRLTSADSGSTFSFSAMRWYRQAPGKERELVAAIRSSVGSTYYADSVKGRFTISRDNAKNTVYLQMNSLKPEDTAVYNCAATTHWFRSYREFYYWGQGTQVTVSS | high polyreactivity
QDQLVESGGGLVQAGGSLRLSCAASGYIFGIYAMGWYRQAPGKERELVAAISSDSTYYADSVKGRFTISRDNAKNTVYLQMNRQKPEDTAVYYCAAYWFNQDYEFEYWGHGTQVTVSS | high polyreactivity
